Consider four substances from publication PMC9305336.

The test system of data set [1] is TSPYL5-NLD (Homo sapiens). Put plainly: EMSA. The following applies: 10 mM Hepes pH 7.5, 200 mM NaCl, 1 mM TCEP, 5% glycerol, 0.5 mM EDTA; 30 min on ice then 20 min at 25 °C; 6% native Tris-glycine PAGE, GelGreen stain. Background: Mobility shift assays separate free from complexed probe on a gel.
For data set [2], the target named is recombinant His-tagged histone H3/H4 (human) (UniProt P68431). Put plainly: SEC-MALS; Enrich SEC 70 column in high salt HBS buffer (20 mM Hepes pH 7.5, 2 M NaCl, 1 mM TCEP, 5% glycerol); TSPYL5-NLD alone, H3/H4 alone (H3/H4 dimers to tetramer) and the coexpressed, co-purified complex. (In general: Size exclusion chromatography separates by hydrodynamic size, large species first.)

In general, Kd refers to the concentration at which binding is half-saturated. Low values mean tighter binding, high ones weaker binding. For 80 bp DNA, the Kd in data set [1] was 500 nM. The same measure, in the same setting: the value for 146 bp DNA was 380 nM. For the substance “His-SUMO-tagged TSPYL5-NLD (from UniProt Q86VY4 198-388) (domain or fragment)”, the stoichiometry N (TSPYL5 : 2 H3 : 2 H4) in data set [2] turned out to be 2. As usually defined, the stoichiometry N is the number of molecules, sites or subunits per partner or assembly. “recombinant His-tagged histone H3/H4 (from UniProt P68431 1-136; P62805 1-103) (complex)”: the stoichiometry N in data set [2] was 4.
